What is called Kd is the free concentration of one partner at which half of the binding sites on the other are occupied at equilibrium, for simple one-to-one binding.

The target of one data set is GR DBD (UniProt P04150 417-506). The data set can be described thus: fluorescence polarization; 10 nM DNA; slight positive cooperativity; endpoint called affinity; FP: 100 mM NaCl, 20 mM Tris-HCl pH 7.4, 5% glycerol, 10 nM FAM-GRE; temperature not stated. The following applies: protein: recombinant; chain copies: 2; label: 5' 6-FAM on strand 1; blunt.
Sequence of GR DBD (P04150 417-506): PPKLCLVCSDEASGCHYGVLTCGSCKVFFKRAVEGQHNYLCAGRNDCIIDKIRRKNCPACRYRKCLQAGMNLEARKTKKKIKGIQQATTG
Data set [1] concerns the target T1, MR DBD (human, UniProt P08235 593-671). The data set is described as above. The settings on record: protein: recombinant; tags: 6xHis (pMCSG7 vector); chain copies: 2; label: 5' 6-FAM on strand 1; blunt.
Data set [2] concerns the molecule itself. The data set can be described thus: crystal structure; MR DBD crystallised with a 17 base pair GRE DNA, 2:1 molar ratio of DNA to protein, protein at 3.0 mg/ml; hanging-drop vapor diffusion, 0.2 M sodium malonate, 12% PEG 3350; the DBD dimer is seen bound to the two DNA half sites.
The target in data set [3] is T1, MR DBD. The data set can be described thus: X-ray crystallography; DBD dimer on two half sites; 2.4 A; FP: 100 mM NaCl, 20 mM Tris-HCl pH 7.4, 5% glycerol, 10 nM FAM-GRE; temperature not stated. The following applies: protein: recombinant; tags: 6xHis (pMCSG7 vector); chain copies: 2.

B1: FAM-GRE (dsDNA)
DNA 1: CCAGAACAGAGTGTTCTGA
DNA 2: TCAGAACACTCTGTTCTGG
B1: the values for the equilibrium dissociation constant (Kd) in the data set with GR DBD and in the data set with MR DBD [1] were 53 nM and 55 nM, respectively.

B2: human mineralocorticoid receptor DNA binding domain (domain or fragment, UniProt P08235 593-671, looked up)
chain: STGSSRPSKICLVCGDEASGCHYGVVTCGSCKVFFKRAVEGQHNYLCAGRNDCIIDKIRRKNCPACRLQKCLQAGMNLG
notes: Cloned into pMCSG7, 'which contains a 6X-histidine tag'; Two copies of the chain form the dimer on the GRE DNA in the crystal; also called MR DBD; MR
Turning to B2, the binding result in data set [2] was “binds”.

B3: GRE 17 bp (crystal) (dsDNA)
DNA 1: GTCTTGTCTCACAAGAC
DNA 2: GTCTTGTGAGACAAGAC
Take B3: in the data set with MR DBD [3], the binding result was “binds”.

Source of the values: PMC4154765, “Crystal Structure of the Mineralocorticoid Receptor DNA Binding Domain in Complex with DNA” (PLoS ONE, 2014).
